This series deals with the molecule itself. The series can be described thus: native gel or EMSA. Background: A gel shift assay detects complexes by their altered migration in electrophoresis.

B1: ZnT8B-G3H6 (amino-terminal truncated, 35 kDa isoform of human zinc transporter ZnT8 / SLC30A8) (natural protein)
chain: MYHCHSGSKPTEKGANEYAYAKWKLCSASAICFIFMIAEVVGGHIAGSLAVVTDAAHLLIDLTSFLLSLFSLWLSSKPPSKRLTFGWHRAEILGALLSILCIWVVTGVLVYLACERLLYPDYQIQATVMIIVSSCAVAANIVLTVVLHQRCLGHNHKEVQANASVRAAFVHALGDLFQSISVLISALIIYFKPEYKIADPICTFIFSILVLASTITILKDFSILLMEGVPKSLNYSGVKELILAVDGVLSVHSLHIWSLTMNQVILSAHVATAASRDSQVVRREIAKALSKSFTMHSLTIQMESPVDQDPDCLFCEDPCD
For orientation: stoichiometry N means a count of units in the complex or per binding partner. Take B1: the “stoichiometry N” value stood at 2.
